Drawing on ChEMBL document CHEMBL4371014, “Novel Allosteric Ligands of γ-Aminobutyric Acid Transporter 1 (GAT1) by MS Based Screening of Pseudostatic Hydrazone Libraries” (J Med Chem, 2018), this text covers Vmax (amol/cell.min) and Km for one protein.

Compound in data set [1]: O=C(O)[C@H]1CNC[C@@H](CN/N=C/c2ccc(-c3cc(C(F)(F)F)cc(C(F)(F)F)c3)o2)C1
Nature of the data set: (§1) Non-competitive inhibition of human GAT1 expressed in COS cells assessed as reduction in [2H6]GABA uptake by measuring [2H6]GABA Vmax at 10 uM preincubated for 25 mins followed by [3H]GABA addition and measured after 4 mins by liquid scintillation counting method (reference value: 570 +/- 53 amol/cell.min). The data set is classed as cell-based.

Compound in data set [2]: O=C(O)[C@H]1CNC[C@@H](CN/N=C/c2ccc(-c3cccc4ccccc34)o2)C1
The data set is described as §1. The class given is cell-based.

Compound in data set [3]: O=C(O)[C@H]1CNC[C@@H](CN/N=C/c2ccc(-c3cc(C(F)(F)F)cc(C(F)(F)F)c3)o2)C1
Nature of the data set: (§2) Non-competitive inhibition of human GAT1 expressed in COS cells assessed as reduction in [2H6]GABA uptake by measuring [2H6]GABA Km(app) at 10 uM preincubated for 25 mins followed by [3H]GABA addition and measured after 4 mins by liquid scintillation counting method (reference value: 12 +/- 1.2 uM). The class given is cell-based.

Compound in data set [4]: O=C(O)[C@H]1CNC[C@@H](CN/N=C/c2ccc(-c3cccc4ccccc34)o2)C1
The data set is described as §2. The class given is cell-based.

Compound in data set [5]: O=C(O)[C@H]1CNC[C@@H](CN/N=C/c2ccc(-c3cc(C(F)(F)F)cc(C(F)(F)F)c3)o2)C1
Nature of the data set: (§3) Non-competitive inhibition of human GAT1 expressed in COS cells assessed as reduction in [2H6]GABA uptake by measuring [2H6]GABA Vmax at 30 uM preincubated for 25 mins followed by [3H]GABA addition and measured after 4 mins by liquid scintillation counting method (reference value: 570 +/- 53 amol/cell.min). The data set is classed as cell-based.

Compound in data set [6]: O=C(O)[C@H]1CNC[C@@H](CN/N=C/c2ccc(-c3cccc4ccccc34)o2)C1
The data set is described as §3. The class given is cell-based.

Compound in data set [7]: O=C(O)[C@H]1CNC[C@@H](CN/N=C/c2ccc(-c3cc(C(F)(F)F)cc(C(F)(F)F)c3)o2)C1
Nature of the data set: (§4) Non-competitive inhibition of human GAT1 expressed in COS cells assessed as reduction in [2H6]GABA uptake by measuring [2H6]GABA Km(app) at 30 uM preincubated for 25 mins followed by [3H]GABA addition and measured after 4 mins by liquid scintillation counting method (reference value: 12 +/- 1.2 uM). The class given is cell-based.

Compound in data set [8]: O=C(O)[C@H]1CNC[C@@H](CN/N=C/c2ccc(-c3cccc4ccccc34)o2)C1
The data set is described as §4. The class given is cell-based.

Substrate in data set [9]: Cc1ccsc1C(=CCCN1CCC[C@@H](C(=O)O)C1)c1sccc1C
Conditions: Homo sapiens; 100 nM.

Substrate in data set [10]: Cc1ccsc1C(=CCCN1CCC[C@@H](C(=O)O)C1)c1sccc1C
Conditions: Homo sapiens; 100 nM. This is another data set of the same source.

Substrate in data set [11]: Cc1ccsc1C(=CCCN1CCC[C@@H](C(=O)O)C1)c1sccc1C
Conditions: Homo sapiens; 300 nM.
Description: Mixed-type inhibition of human GAT1 expressed in COS cells assessed as reduction in [2H6]GABA uptake by measuring [2H6]GABA Vmax at 300 nM preincubated for 25 mins followed by [3H]GABA addition and measured after 4 mins by liquid scintillation counting method

Substrate in data set [12]: Cc1ccsc1C(=CCCN1CCC[C@@H](C(=O)O)C1)c1sccc1C
Conditions: Homo sapiens; 300 nM. This is another data set of the same source.

B1: Sodium- and chloride-dependent GABA transporter 1 (Homo sapiens), P30531 (protein)
chain: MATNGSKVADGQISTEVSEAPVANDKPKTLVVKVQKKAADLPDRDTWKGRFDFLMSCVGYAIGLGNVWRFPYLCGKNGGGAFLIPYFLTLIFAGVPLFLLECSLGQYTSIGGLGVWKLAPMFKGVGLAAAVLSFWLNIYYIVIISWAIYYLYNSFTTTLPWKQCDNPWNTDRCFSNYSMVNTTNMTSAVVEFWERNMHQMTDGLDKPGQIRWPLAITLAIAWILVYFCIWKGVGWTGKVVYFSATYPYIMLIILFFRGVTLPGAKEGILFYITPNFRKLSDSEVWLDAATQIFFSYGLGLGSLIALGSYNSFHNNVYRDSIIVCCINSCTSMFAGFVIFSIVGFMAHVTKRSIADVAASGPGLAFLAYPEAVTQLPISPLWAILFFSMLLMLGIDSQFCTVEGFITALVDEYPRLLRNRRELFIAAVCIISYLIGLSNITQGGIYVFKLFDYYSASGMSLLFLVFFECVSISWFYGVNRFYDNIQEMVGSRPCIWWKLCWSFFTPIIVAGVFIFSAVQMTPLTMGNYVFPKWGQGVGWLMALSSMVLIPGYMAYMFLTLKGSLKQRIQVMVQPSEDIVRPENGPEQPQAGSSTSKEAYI
For B1, the Vmax (amol/cell.min) in [1] was 341; in [2] it was 332; in [5] it was 183; in data set [6] it was 165; in data set [10], 491; in data set [11] it was 419. Besides, the Michaelis-Menten constant (Km) worked out at 8.2 µM in data set [3]; 10.1 µM in data set [4]; 5.1 µM in [7]; 5.7 µM in data set [8]; 19.7 µM in [9]; 29.4 µM in data set [12].
